From patent US20220396635A1 (UNIVERSIT T STUTTGART, published 2022)

Biological target: T1, CD3 (UniProt P07766 23-207)
T1 construct: whole, on cells; on cells it stands in the TCR/CD3 complex; also called CD3 on Jurkat cells
Test: flow cytometry, serial dilution on Jurkat cells (CD3-expressing), PE anti-human Fc detection, n = 1
Procedure: Trivalent, trispecific antibodies were analyzed for their binding to tumor cell lines with different EGFR- and HER3-expression levels (Table 14) by flow cytometry. Adherent cells were washed with PBS and shortly trypsinized at 37° C. Trypsin was quenched with FCS-containing medium and removed by centrifugation (500×g, 5 min.). 1×10⁵ target cells/well (FaDu, LIM1215, SKBR-3, T-47-D, MCF-7 and Jurkat cells) were incubated with a serial dilution of trivalent, trispecific antibodies for 1 h at 4° C. After removing excess of recombinant protein by washing with PBA (PBS, 2% FBS, and 0.02% sodium azide), bound protein was detected using PE-conjugated anti-human Fc mAb (Jackson ImmunoResearch Laboratories Inc). Fluorescence was measured using MACSquant VYB (Miltenyi Biotec) and data were analyzed using FlowJo (Tree Star). Relative median fluorescence intensities (MFI) were calculated as followed: relative MFI=((MFIₛₐₘₚₗₑ-(MFIdetection-MFIcells))/MFIcells).

Row | EC50 [nM] | Binder
1 | 1.6 | scDb/scFv-Fc (1-2)+3, trivalent trispecific anti-EGFRxanti-HER3×anti-CD3 (other, Trispecific antibody: 1 = HER3 (3-43), 2 = CD3 (huU3), 3 = EGFR (hu225); also called scDb3-43xhuU3-Fc(hole)Δab + scFvhu225-Fc(knob)Δab) chain 1: QVQLQQSGPGLVKPSQTLSLTCAISGDSVSSNRAAWNWIRQSPSRGLEWLGRTYYRSKWYNDYAQSLKSRITINPDTPKNQFSLQLNSVTPEDTAVYYCARDGQLGLDALDIWGQGTMVTVSSGGGGSDIQMTQSPSSLSASVGDRVTITCRASQDIRNYLNWYQQKPGKAPKLLIYYTSRLHSGVPSRFSGSGSGTDFTFTISSLQPEDIATYYCQQGNTLPWTFGQGTKLEIKRGGGGSGGGGSGGGGSQVQLVQSGAEVKKPGSSVKVSCKASGGTFSGYTMNWVRQAPGQGLEWMGLINPYKGVSTYNGKFKDRVTITADKSTSTAYMELSSLRSEDTAVYYCARSGYYGDSDWYFDVWGQGTLVTVSSGGGGSQAGLTQPPAVSVAPGQTASITCGRDNIGSRSVHWYQQKPGQAPVLVVYDDSDRPAGIPERFSGSNYENTATLTISRVEAGDEADYYCQVWGITSDHVVFGGGTKLTVLAAADKTHTCPPCPAPPVAGPSVFLFPPKPKDTLMISRTPEVTCVVVDVSHEDPEVKFNWYVDGVEVHNAKTKPREEQYNSTYRVVSVLTVLHQDWLNGKEYKCKVSNKGLPSSIEKTISKAKGQPREPQVCTLPPSRDELTKNQVSLSCAVKGFYPSDIAVEWESNGQPENNYKTTPPVLDSDGSFFLVSKLTVDKSRWQQGNVFSCSVMHEALHNHYTQKSLSLSPGK chain 2: EVQLVESGGGLVQPGGSLRLSCAASGFSLTNYGVHWVRQAPGKGLEWLGVIWSGGNTDYNTPFTSRFTISRDNSKNTLYLQMNSLRAEDTAVYYCARALTYYDYEFAYWGQGTTVTVSSGGGGSGGGGSGGGGSDIQLTQSPSFLSASVGDRVTITCRASQSIGTNIHWYQQKPGKAPKLLIKYASESISGVPSRFSGSGSGTEFTLTISSLQPEDFATYYCQQNNNWPTTFGAGTKLEIKRAAADKTHTCPPCPAPPVAGPSVFLFPPKPKDTLMISRTPEVTCVVVDVSHEDPEVKFNWYVDGVEVHNAKTKPREEQYNSTYRVVSVLTVLHQDWLNGKEYKCKVSNKGLPSSIEKTISKAKGQPREPQVYTLPPCRDELTKNQVSLWCLVKGFYPSDIAVEWESNGQPENNYKTTPPVLDSDGSFFLYSKLTVDKSRWQQGNVFSCSVMHEALHNHYTQKSLSLSPGK
2 | 0.8 | scDb/Fab-Fc (1-2)+3, trivalent trispecific anti-EGFRxanti-HER3×anti-CD3 (other, Trispecific antibody: 1 = HER3, 2 = CD3, 3 = EGFR; also called scDb3-43xhuU3-Fc(hole)Δab + Fdhu225-Fc(knob)Δab + VLhu225-CLκ) QVQLQQSGPGLVKPSQTLSLTCAISGDSVSSNRAAWNWIRQSPSRGLEWLGRTYYRSKWYNDYAQSLKSRITINPDTPKNQFSLQLNSVTPEDTAVYYCARDGQLGLDALDIWGQGTMVTVSSGGGGSDIQMTQSPSSLSASVGDRVTITCRASQDIRNYLNWYQQKPGKAPKLLIYYTSRLHSGVPSRFSGSGSGTDFTFTISSLQPEDIATYYCQQGNTLPWTFGQGTKLEIKRGGGGSGGGGSGGGGSQVQLVQSGAEVKKPGSSVKVSCKASGGTFSGYTMNWVRQAPGQGLEWMGLINPYKGVSTYNGKFKDRVTITADKSTSTAYMELSSLRSEDTAVYYCARSGYYGDSDWYFDVWGQGTLVTVSSGGGGSQAGLTQPPAVSVAPGQTASITCGRDNIGSRSVHWYQQKPGQAPVLVVYDDSDRPAGIPERFSGSNYENTATLTISRVEAGDEADYYCQVWGITSDHVVFGGGTKLTVLAAADKTHTCPPCPAPPVAGPSVFLFPPKPKDTLMISRTPEVTCVVVDVSHEDPEVKFNWYVDGVEVHNAKTKPREEQYNSTYRVVSVLTVLHQDWLNGKEYKCKVSNKGLPSSIEKTISKAKGQPREPQVCTLPPSRDELTKNQVSLSCAVKGFYPSDIAVEWESNGQPENNYKTTPPVLDSDGSFFLVSKLTVDKSRWQQGNVFSCSVMHEALHNHYTQKSLSLSPGK heavy: EVQLVESGGGLVQPGGSLRLSCAASGFSLTNYGVHWVRQAPGKGLEWLGVIWSGGNTDYNTPFTSRFTISRDNSKNTLYLQMNSLRAEDTAVYYCARALTYYDYEFAYWGQGTTVTVSSASTKGPSVFPLAPSSKSTSGGTAALGCLVKDYFPEPVTVSWNSGALTSGVHTFPAVLQSSGLYSLSSVVTVPSSSLGTQTYICNVNHKPSNTKVDKKVEPKSCGTDKTHTCPPCPAPPVAGPSVFLFPPKPKDTLMISRTPEVTCVVVDVSHEDPEVKFNWYVDGVEVHNAKTKPREEQYNSTYRVVSVLTVLHQDWLNGKEYKCKVSNKGLPSSIEKTISKAKGQPREPQVYTLPPCRDELTKNQVSLWCLVKGFYPSDIAVEWESNGQPENNYKTTPPVLDSDGSFFLYSKLTVDKSRWQQGNVFSCSVMHEALHNHYTQKSLSLSPGK light: DIQLTQSPSFLSASVGDRVTITCRASQSIGTNIHWYQQKPGKAPKLLIKYASESISGVPSRFSGSGSGTEFTLTISSLQPEDFATYYCQQNNNWPTTFGAGTKLEIKRTVAAPSVFIFPPSDEQLKSGTASVVCLLNNFYPREAKVQWKVDNALQSGNSQESVTEQDSKDSTYSLSSTLTLSKADYEKHKVYACEVTHQGLSSPVTKSFNRGEC
